Target: T1, HKv2.1 (Homo sapiens, UniProt Q14721)
T1 sequence (Q14721 1-858): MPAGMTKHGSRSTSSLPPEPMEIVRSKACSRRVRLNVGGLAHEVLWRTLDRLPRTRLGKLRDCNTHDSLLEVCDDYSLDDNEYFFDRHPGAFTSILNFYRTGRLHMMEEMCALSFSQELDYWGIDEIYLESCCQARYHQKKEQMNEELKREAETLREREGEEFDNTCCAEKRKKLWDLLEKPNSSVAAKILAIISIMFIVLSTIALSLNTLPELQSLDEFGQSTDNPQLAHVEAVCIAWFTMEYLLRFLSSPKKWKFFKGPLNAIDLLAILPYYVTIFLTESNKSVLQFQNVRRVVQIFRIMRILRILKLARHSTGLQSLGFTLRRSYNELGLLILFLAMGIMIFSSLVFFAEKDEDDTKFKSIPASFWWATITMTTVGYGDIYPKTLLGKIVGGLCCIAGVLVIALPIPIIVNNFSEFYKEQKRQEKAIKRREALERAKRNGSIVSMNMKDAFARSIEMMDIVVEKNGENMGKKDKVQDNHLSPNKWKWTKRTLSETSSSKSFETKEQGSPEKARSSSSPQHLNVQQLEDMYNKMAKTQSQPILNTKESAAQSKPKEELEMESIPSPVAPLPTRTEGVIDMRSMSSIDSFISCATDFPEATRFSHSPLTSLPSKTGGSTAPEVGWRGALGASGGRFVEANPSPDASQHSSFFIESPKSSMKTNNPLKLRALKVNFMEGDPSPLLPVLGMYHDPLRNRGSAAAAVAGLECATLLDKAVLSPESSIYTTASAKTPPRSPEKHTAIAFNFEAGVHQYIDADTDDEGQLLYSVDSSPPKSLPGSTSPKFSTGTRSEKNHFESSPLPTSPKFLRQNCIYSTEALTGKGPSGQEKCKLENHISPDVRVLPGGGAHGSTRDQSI
Experiment: Two-electrode voltage clamp of Kv2.1 currents in Xenopus oocytes coexpressing 1v
Type: cell-based
Protocol: Frogs underwent no more than two surgeries and surgeries were performed by well established techniques. Frogs were anesthetized with ice. Total cRNA (1-10 ng) was injected into stage IV Xenopus oocytes that were harvested the previous day. The Xenopus oocytes were incubated in ND96 containing (in mM) 96 NaCl, 2 KCl, 1.8 CaCl2, 1 MgCl2, 5 HEPES, pH 7.6, plus (Gentamycin 50 μg/ml) at 18° C. Xenopus oocytes were studied 3-7 days after injection. The two-electrode voltage-clamp recordings were performed in ND96 solution using a TURBO TEC 03 Clamp Amplifier (ALA Scientific Instruments, Westbury, N.Y.). Both electrodes were filled with 3 M KCl and had electrode resistances ranging from 0.2-1 MOhm. The current signals were filtered at 1000 Hz before transferred on a PC (Gateway, Calif.) using the PULSE software (HEKA, Germany).
To investigate whether the modulatory effects of these KChIPs are specific for Kv4 channels, KChIP1 was coexpressed with Kv1.4 and Kv2.1 in Xenopus oocytes. Xenopus oocytes were injected with 1-3 ng/oocyte of cRNA which was prepared using standard in vitro transcription techniques (Sambrook et al. 1989. Molecular Cloning: a laboratory manual, Cold Spring Harbor Press). Currents in Xenopus oocytes were measured with a two-electrode voltage clamp. […] As a final control for the KChIP effects and to verify that the KChIPs' effects on Kv4 currents are independent of expression system, the above kinetic analyses were repeated after expressing Kv4.3 and KChIP mRNAs in Xenopus oocytes. The effects KChIP1 on for Kv4.3 in the Xenopus oocyte system were strikingly similar to those on Kv4.2 in CHO cells (Table 1).

B1: KChIP1: Potassium channel interacting protein 1v, a Ca2+-binding protein that binds and modulates Kv4 channels (protein)
chain: MPARVLLAYPGTEMLTQGESEGLQTLGIVVVLCSSLKLLHYLGLIDLSDDKIEDDLEMTMVCHRPEGLEQLEAQTNFTKRELQVLYRGFKNECPSGVVNEETFKQIYAQFFPHGDASTYAHYLFNAFDTTQTGSVKFEDFVTALSILLRGTVHEKLRWTFNLYDINKDGYINKEEMMDIVKAIYDMMGKYTYPVLKEDTPRQHVDVFFQKMDKNKDGIVTLDEFLESCQEDDNIMRSLQLFQNVM
- effect on Kv2.1 currents: did not appear to have any effect
- Activation V1/2 (mV) (HKv2.1 + 1v): 12.4 mV
- Steady-state Inactivation V1/2 (mV) (HKv2.1 + 1v): −23.9 mV
- Peak Current (μA/cell at 50 MV) (HKv2.1 + 1v, at 50 mV): 2.9 ± 0.37 μA/cell
- Inactivation time constant (at 50 mV) (HKv2.1 + 1v, at 50 mV, listed as head says ms, cell prints s): 1.7 s 0.078
